# Measured values from patent US20230348572A1 (ROSALIND FRANKLIN INSTITUTE, published 2023).
# Where two headings read alike, the source gives them in different places.
# Legend:
# [1] = biological target: T1, SARS-CoV-2 Spike receptor binding domain (RBD, amino acids 330-532) (SARS-CoV-2, UniProt P0DTC2 330-532); assay: phage ELISA on biotinylated RBD captured on neutravidin, anti-M13-HRP
# T1 construct: range 330-532
# RBD-Fc [2] = biological target: T2, RBD-Fc (SARS-CoV-2; human, UniProt P0DTC2 330-532)
# RBD-Fc [3] = biological target: T2, RBD-Fc; remark: listed apart in the source
# RBD-Fc [4] = biological target: T2, RBD-Fc; remark: listed apart in the source
# [5] = biological target: T1, SARS-CoV-2 Spike receptor binding …
# [6] = biological target: T1, SARS-CoV-2 Spike receptor binding …; assay: ITC, nanobody titrated into RBD, 25 °C, 1:1 stoichiometry
# [7] = biological target: T1, SARS-CoV-2 Spike receptor binding …; assay: ITC, RBD in the cell, H11-H4 in the syringe
# RBD-Fc [8] = biological target: T2, RBD-Fc; assay: SPR single-cycle kinetics, RBD-Fc on Protein A chip, nanobody as analyte
# [9] = biological target: T1, SARS-CoV-2 Spike receptor binding …; remark: listed apart in the source
# RBD-Fc [10] = biological target: T2, RBD-Fc; assay: SPR, single-cycle kinetics, RBD-Fc immobilized, H11-D4 as analyte, run i)
# RBD-Fc [11] = biological target: T2, RBD-Fc; assay: SPR, single-cycle kinetics, RBD-Fc immobilized, H11-D4 as analyte, run ii)
binder,measurement,setting,value
NbRBD_G7 (VHH) VHH: QVQLVESGGGLVQPGGSLRLSCATSGFTFDTYDMSWVRQAPGNGPEWVSAEDSTGNKFYADSVKGRFAISRDNARNTLYLQMNSLTSEDTAVYYCAKGLRSWGAWGQGTQVTVSS,ELISA A405,[1],> 1.5
"NbRBD_H11 (VHH, also called nanobody H11; Nb H11) VHH: QVQLVESGGGLMQAGGSLRLSCAVSGRTFSTAAMGWFRQAPGKEREFVAAIRWSGGSAYYADSVKGRFTISRDKAKNTVYLQMNSLKYEDTAVYYCAQTRVTRSLLSDYATWPYDYWGQGTQVTVSS",Kd,RBD-Fc [2],< 1000 nM
same,Kd,RBD-Fc [3],378 nM
same,ELISA A405,[1],> 1.5
"NbRBD_H11-H4 (VHH, also called nanobody H11-H4) VHH: QVQLVESGGGLMQAGGSLRLSCAVSGRTFSTAAMGWFRQAPGKEREFVAAIRWSGGSAYYADSVKGRFTISRDKAKNTVYLQMNSLKYEDTAVYYCAQTHYVSYLLSDYATWPYDYWGQGTQVTVSS",Kd,RBD-Fc [4],5.5 nM
same,Kd,[5],11.8 nM
same,ΔH,[5],-69 kJmol-1
same,ΔS,[5],-79 Jmol-1K-1
same,Kd,[6],12 nM
same,ΔH,[7],-67 kJmol-1
same,ΔS,[7],-80 Jmol-1K-1
same,Kd,RBD-Fc [8],~5 nM
"NbRBD_H11-D4 (VHH, also called nanobody H11-D4) VHH: QVQLVESGGGLMQAGGSLRLSCAVSGRTFSTAAMGWFRQAPGKEREFVAAIRWSGGSAYYADSVKGRFTISRDKAKNTVYLQMNSLKYEDTAVYYCARTENVRSLLSDYATWPYDYWGQGTQVTVSS",Kd,[9],39.2 nM
same,ΔH,[9],-76.1 kJmol-1
same,ΔS,[9],-114 Jmol-1K-1
same,Kd,[6],39 nM
same,Kd,RBD-Fc [8],~10 nM
same,Kd,RBD-Fc [10],9 nM
same,Kd,RBD-Fc [11],10 nM
NbRDB_E11 (VHH) VHH: QVQLVESGGGLVQPGGSLRLSCAASGFTFSNYAMTWVRQAPGKGLEWISDIGSDGRHPAYADSVKGRYTISRDNAKNTLYLQMNSLKPEDTAMYYCLPGWSTVGTFLDAWGQGTQVTVSS,ELISA A405,[1],> 1.5
NbRBD_C10 (VHH) VHH: QVQLVESGGGLVQPGGSLRLSCAASGFAFSSYDMSWVRQAPGKGLEWVSAIDSGGGVTYYADSMKGRFTISRDNAKNTVYLQMNSLKPEDTAVYYCNAVDGLGYLEYDYWGQGTQVTVSS,ELISA A405,[1],> 1.5
NbRBD_F5 (VHH) VHH: QVQLVESGGGLVQAGGSLRLSCAASGTIFRINAMAWYRQAPGKQRELVAIISNGDSGDSTNYADSVKGRFTISRDSAKNTVYLQMNSLKPEDTAVYYCNVEASWPHKYWGQGTQVTVSS,ELISA A405,[1],> 1.5
NbRBD_B11 (VHH) VHH: QVQLVESGGGLVQPGGSLRLSCAASGFTFDDYAMSWVRQAPGKGLEWVSNIYSYISTTHYADSVKGRFTISTDNAKNTLYLQMNSLKPEDTAVYYCAARRLDTTDYKYWGQGTQVTVSS,ELISA A405,[1],> 1.5
NbRBD_G9 (VHH) VHH: QVQLVESGGGLVQPGGSLRLSCAASGFTFYDYHMSWVRQAPGKGLEWVSGIDTGGGRTYAADSVKGRFTISRDNAKNTLYLQMNSLKSEDTALYYCVRDGDARGPDYDYWGQGTMVTVSS,ELISA A405,[1],> 1.5
NbRBD_D1 (VHH) VHH: QVQLVESGGGLVQPGGSLRLSCAASGFTFSSYGMSWVRQAPGKGLEWVSGINSGGGSTSYADSVKGRFTISRDNAKNTLYLQMNSLKSEDTAVYYCAKDASEDAGRLYWTDYWGQGTQVTVSS,ELISA A405,[1],> 1.5
NbRBD_G11 (VHH) VHH: QVHLVESGGGLVQPGGSLRLSCAASGFTFDDYGMTWVRQAPGKGLEWVSAVNSGGGTSYADSVKGRFTISRDNAKNTLYLQMNSLKPEDTAVYYCAKRDGSWWGYTTDYWGKGTQVTVSS,ELISA A405,[1],> 1.5
NbRBD_F9 (VHH) VHH: QVQLVESGGGLVQPGGSLRVSCAASGFTFSSYFMSWVRQAPGKQRELVATIGDRGNTNYADSVKGRFTISRDNAKNTVYLQMNSLKPEDTAVYYCYSRNRILQHYWGQGTQVTVSS,ELISA A405,[1],> 1.5
NbRBD_A7 (VHH) VHH: QVQLVESGGGLVQPGGSLRLSCAASGFTFDDYAMSWVRQAPGKGLEWVSAISWNGGGTYYAESMKGRFTISRDNAKNTLYLQMNSLKSEDTAVYYCAKDFHRYGSSTLEYDYWGQGTQVTVSS,ELISA A405,[1],> 1.5
NbRBD_C7 (VHH) VHH: QVQLVESGGGLVQPGGSLRLSCAASGFTFSSYDMSWVRQAPGKGLEWVSGISGSDSTTVYSDSVKDRFTISRDNAKNTLYLQMNKLKPEDTALYYCARPLGQYTSWGQGTQVTVSS,ELISA A405,[1],> 1.5
NbRBD_B4 (VHH) VHH: QVQLVESGGGLVQPGGSLRLSCAASGFTFSSYWMYWVRQAPGKGLEWVSVINTGGDTTYYADSVKGRFTISRDNDENTLSLQMNSLKPEDTALYYCARTGVVRGPGDLDAWGQGTQVTVSS,ELISA A405,[1],> 1.5
